The record followed here is patent US20170247475A1 (Boehringer Ingelheim, published 2017).

For experiment [1], the target named is T1, recombinant human VEGF121 (human, UniProt P15692-9 27-147).
T1 construct: also called rhVEGF121; hVEGF121
T1 sequence (looked up): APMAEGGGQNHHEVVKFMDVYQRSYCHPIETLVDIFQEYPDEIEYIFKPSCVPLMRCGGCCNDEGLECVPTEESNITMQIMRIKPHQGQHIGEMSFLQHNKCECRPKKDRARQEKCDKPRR
Put plainly: binding ELISA, coated rhVEGF121. The procedure: Binding to recombinant human VEGF121 is assessed via a solid phase binding ELISA. Briefly, recombinant human VEGF121 (R&D Systems, Minneapolis, Minn., USA) is coated overnight at 4° C. at 1 μg/mL in a 96-well MaxiSorp plate (Nunc, Wiesbaden, Germany). Wells are blocked with a casein solution (1% in PBS).
In general terms: An ELISA detects its analyte on a solid surface through an enzyme-linked reagent.

The target of experiment [2] is T2, recombinant mouse VEGF164 (mouse, UniProt Q00731-2 27-190).
T2 construct: biotinylated in the mVEGFR2 AlphaScreen; also called rmVEGF164; mVEGF164
T2 sequence (looked up): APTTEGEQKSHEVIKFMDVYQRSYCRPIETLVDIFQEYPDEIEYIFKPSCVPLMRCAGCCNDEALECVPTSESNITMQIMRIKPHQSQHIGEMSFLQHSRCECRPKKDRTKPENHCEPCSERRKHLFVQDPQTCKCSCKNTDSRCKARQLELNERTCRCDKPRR
Description: binding ELISA, coated rmVEGF164. The procedure:
Cross-reactivity to mouse VEGF164 is determined using a binding ELISA. […] Wells are blocked with a casein solution (1% in PBS). […] A mouse VEGF164 reactive mAb is included as positive control.

The target of the next experiment is T3, human VEGF-C (human, UniProt P49767 103-227).
T3 construct: also called hVEGF-C
T3 sequence (looked up): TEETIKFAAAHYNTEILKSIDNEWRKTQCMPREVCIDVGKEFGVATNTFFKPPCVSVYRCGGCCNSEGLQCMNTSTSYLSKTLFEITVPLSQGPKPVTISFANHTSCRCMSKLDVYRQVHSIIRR
Put plainly: solid phase binding ELISA. As for the experimental part: (§1) Binding to VEGFB, VEGFC, VEGFD and PIGF is assessed via a solid phase binding ELISA. In brief, VEGFB, VEGFC, VEGFD and PIGF (R&D Systems, Minneapolis, Minn., USA) are coated overnight at 4° C. at 1 μg/mL in a 96-well MaxiSorp plate (Nunc, Wiesbaden, Germany). Wells are blocked with a casein solution (1% in PBS). […] As positive controls serial dilutions of the appropriate receptors are taken along and detected with horseradish peroxidase (HRP)-conjugated goat anti-human IgG, Fc specific antibody (Jackson Immuno Research Laboratories Inc., West Grove, Pa., USA) and a subsequent enzymatic reaction in the presence of the substrate TMB (3,3′,5,5′-tetramentylbenzidine) (Pierce, Rockford, Ill., USA).

The target of another experiment is T4, human PIGF (human, UniProt P49763-2 21-149, limits assumed).
T4 construct: also called hPIGF; PLGF
T4 sequence (looked up): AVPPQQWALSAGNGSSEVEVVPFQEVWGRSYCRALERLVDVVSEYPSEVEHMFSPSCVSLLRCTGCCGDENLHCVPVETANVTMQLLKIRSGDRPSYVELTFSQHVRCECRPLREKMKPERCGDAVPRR
Description: solid phase binding ELISA. As for the experimental part:
as §1

The target in a further experiment is T5, human VEGF-B (human, UniProt P49765-2 22-188, limits assumed).
T5 construct: also called hVEGF-B
T5 sequence (looked up): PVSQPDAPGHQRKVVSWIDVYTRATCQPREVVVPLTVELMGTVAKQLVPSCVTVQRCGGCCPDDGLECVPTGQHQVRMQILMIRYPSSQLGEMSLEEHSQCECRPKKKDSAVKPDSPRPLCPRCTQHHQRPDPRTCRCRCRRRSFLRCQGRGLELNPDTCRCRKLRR
Description: solid phase binding ELISA. As for the experimental part: as §1

In another experiment the target is T6, human VEGF-D (human, UniProt O43915 93-201).
T6 construct: also called hVEGF-D
T6 sequence (looked up): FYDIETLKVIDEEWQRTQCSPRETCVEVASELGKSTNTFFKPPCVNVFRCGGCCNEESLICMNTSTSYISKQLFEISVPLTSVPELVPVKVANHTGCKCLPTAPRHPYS
Put plainly: solid phase binding ELISA. As for the experimental part:
as §1

Experiment [3] deals with T7, recombinant human VEGF165 (human, UniProt P15692-4 27-191).
T7 construct: also called hVEGF165; rhVEGF165
Description: kd1; SPR Biacore T100 on hVEGF165. For orientation: In SPR one partner is held on a chip, and binding of the other changes the refractive index at the surface.
Target sequence in this assay (P15692 other isoform, or with tags, fused parts or gaps limits assumed): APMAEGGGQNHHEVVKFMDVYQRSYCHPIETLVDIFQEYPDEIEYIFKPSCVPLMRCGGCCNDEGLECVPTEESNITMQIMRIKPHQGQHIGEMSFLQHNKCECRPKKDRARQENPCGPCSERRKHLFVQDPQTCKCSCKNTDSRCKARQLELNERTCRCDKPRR

In experiment [4] the target is T7, recombinant human VEGF165. Put plainly: KD1; SPR Biacore T100 on hVEGF165.
Target sequence in this assay (P15692 other isoform, or with tags, fused parts or gaps limits assumed): as above
Experiment [5] concerns the target T7, recombinant human VEGF165. Put plainly: AlphaScreen competition, 0.05 nM hVEGF165 and 0.05 nM hVEGFR1-Fc; blocked: hVEGFR1-Fc. (In general: Alpha assays give light when donor and acceptor beads are brought close together.)
Target sequence in this assay (P15692 other isoform, or with tags, fused parts or gaps limits assumed): as above
The target in experiment [6] is T7, recombinant human VEGF165. Put plainly: AlphaScreen competition, 0.05 nM hVEGF165 and 0.05 nM hVEGFR2-Fc; blocked: hVEGFR2-Fc.
In experiment [7] the target is T7, recombinant human VEGF165. The experiment is described as above. The source holds these as a separate data set.
Experiment [8] concerns the target T7, recombinant human VEGF165. Put plainly: AlphaScreen competition, 0.05 nM hVEGF165 and 0.05 nM hVEGFR1-Fc; blocked: hVEGFR1-Fc. The source holds these as a separate data set.
Target sequence in this assay (P15692 other isoform, or with tags, fused parts or gaps limits assumed): as above
Experiment [9] deals with T7, recombinant human VEGF165. Description: AlphaScreen competition, 0.05 nM hVEGF165 and 0.05 nM hVEGFR2-Fc; blocked: hVEGFR2-Fc. This is another data set of the same source.
Target sequence in this assay (P15692 other isoform, or with tags, fused parts or gaps limits assumed): as above
For experiment [10], the target named is T7, recombinant human VEGF165. Put plainly: AlphaScreen competition, 0.05 nM hVEGF165 and 0.05 nM hVEGFR1-Fc; blocked: hVEGFR1-Fc. The source holds these as a separate data set.
Target sequence in this assay (P15692 other isoform, or with tags, fused parts or gaps limits assumed): as above
Experiment [11] concerns the target T7, recombinant human VEGF165. The description is as above. This is another data set of the same source.

B1: VEGFBII23B04 (VHH)
VHH: EVQLVESGGGLVQTGDSLRLSCEVSGRTFSSYSMGWFRQAQGKEREFVVAISKGGYKYDSVSLEGRFTISKDNAKNTVYLQINSLKPEDTAVYYCASSRAYGSSRLRLADTYEYWGQGTQVTVSS
notes: also called VEGFBII23B4; VEGFBII23B04 (wt)
Broadly, the EC50 is the midpoint of the concentration-response curve. As for B1, in experiment [1], the EC50 was determined as 0.51 nM. For the same molecule, the binding result (in [2]; with human VEGF-C; with human PIGF; in the experiment with human VEGF-B; in the experiment with human VEGF-D) was “no binding (tested: 500 nM-32 pM)” throughout.

B2: VEGFBII038 (VHH)
VHH: DVQLVESGGGLVQPGGSLRLSCAASGRTFSSYSMGWFRQAPGKEREFVVAISKGGYKYDAVSLEGRFTISRDNAKNTVYLQINSLRPEDTAVYYCASSRAYGSSRLRLADTYEYWGQGTLVTVSS
notes: also called VEGFBII0038; VEGFBII00038
A word on the koff: it is the rate constant with which the complex falls apart. The Kd is the concentration at which binding is half-saturated. In the case of B2, in [3], the koff worked out at 0.013 s⁻¹. The dissociation constant Kd in experiment [4] is 0.75 nM. The “IC50 (read off the curve)” value is about 0.5 nM in [5]; about 0.5 nM in experiment [6]; about 0.5 nM in experiment [7]; about 0.3 nM in experiment [8]; about 0.2 nM in experiment [9]; about 0.8 nM in [10]. For the same molecule, in experiment [11], the “IC50 (read off the curve)” value is about 0.8 nM.
